# Measurements taken from patent US20150160219.
# Experiments:
# [1] = tested on: Indicator molecule of Example 2 (peptide with one MMP9 cleavage site, first capture region ALP, terminal biotin via polyethylene glycol spacer)
# [2] = tested on: Indicator molecule of Example 3 (synthetic peptide with MMP-9 sequence, HNE sequence, DNP, fluorescent label and terminal biotin via PEG)
# [3] = tested on: Indicator molecule of Example 4 with 2 MMP9 cleavage sites (ALP first capture region, terminal biotin via PEG)
# [4] = tested on: Indicator molecule of Example 4 with 3 MMP9 cleavage sites (ALP first capture region, terminal biotin via PEG)
# [5] = tested on: Indicator molecule of Example 4 with 5 MMP9 cleavage sites (ALP first capture region, terminal biotin via PEG)
# [6] = tested on: Indicator molecule of Example 4 with 7 MMP9 cleavage sites (ALP first capture region, terminal biotin via PEG)
# [7] = tested on: Indicator molecule of Example 5 with 2 MMP9 cleavage sites (terminal biotin, DNP, FITC)
# [8] = tested on: Indicator molecule of Example 5 with 3 MMP9 cleavage sites (terminal biotin, DNP, FITC)
# [9] = tested on: Indicator molecule of Example 5 with 4 MMP9 cleavage sites (terminal biotin, DNP, FITC)
# Matrix Metalloprotease-9 (MMP-9) (Mologic), sequence (chain, as listed by the source): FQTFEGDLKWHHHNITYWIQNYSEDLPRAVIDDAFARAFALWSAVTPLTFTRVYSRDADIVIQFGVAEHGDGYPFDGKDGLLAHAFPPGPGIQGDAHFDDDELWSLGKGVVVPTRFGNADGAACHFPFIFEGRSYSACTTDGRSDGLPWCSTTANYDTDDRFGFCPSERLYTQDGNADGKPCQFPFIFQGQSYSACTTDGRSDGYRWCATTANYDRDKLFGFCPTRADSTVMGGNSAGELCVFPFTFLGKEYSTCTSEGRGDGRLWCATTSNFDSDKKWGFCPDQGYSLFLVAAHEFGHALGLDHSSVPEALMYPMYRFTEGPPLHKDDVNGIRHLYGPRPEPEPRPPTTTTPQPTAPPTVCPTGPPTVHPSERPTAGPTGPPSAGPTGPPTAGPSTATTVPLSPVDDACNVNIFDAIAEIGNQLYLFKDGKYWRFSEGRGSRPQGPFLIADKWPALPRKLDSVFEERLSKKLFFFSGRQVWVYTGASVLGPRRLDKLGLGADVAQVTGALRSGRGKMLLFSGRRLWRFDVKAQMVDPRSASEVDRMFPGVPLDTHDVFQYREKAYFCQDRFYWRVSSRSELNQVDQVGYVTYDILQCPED
substance,measurement,setting,value
Matrix Metalloprotease-9 (MMP-9) (Mologic),detectable limit of the lateral flow cleavage assay,[1],approximately 250-500 ng/ml
same,sensitivity of the assay,[1],"250-500 ng/ml MMP9, seen with an indicator molecule having 1 cleavage site"
same,test line signal at 31.25 ng/ml MMP9,[1],0 reader units
same,test line signal at 62.5 ng/ml MMP9,[1],0 reader units
same,test line signal at 125 ng/ml MMP9,[1],0 reader units
same,test line signal at 250 ng/ml MMP9,[1],0 reader units
same,test line signal at 500 ng/ml MMP9,[1],1.93 reader units
same,test line signal at 1000 ng/ml MMP9,[1],4.52 reader units
same,test line signal at 2000 ng/ml MMP9,[1],8 reader units
same,cut-off of the assay,[2],The cut-off with all indicator molecules was below <31.25 ng/ml
same,detectable limit of the lateral flow cleavage assay,[2],approximately 125-250 ng/ml
same,test line signal at 31.25 ng/ml MMP9,[2],1.37 reader units
same,test line signal at 62.5 ng/ml MMP9,[2],1.28 reader units
same,test line signal at 125 ng/ml MMP9,[2],2.01 reader units
same,test line signal at 250 ng/ml MMP9,[2],3.34 reader units
same,test line signal at 500 ng/ml MMP9,[2],3.73 reader units
same,test line signal at 1000 ng/ml MMP9,[2],4.33 reader units
same,test line signal at 2000 ng/ml MMP9,[2],8.7 reader units
same,test line signal at 31.25 ng/ml MMP9,[3],0.68 reader units
same,test line signal at 62.5 ng/ml MMP9,[3],0.32 reader units
same,test line signal at 125 ng/ml MMP9,[3],0.57 reader units
same,test line signal at 250 ng/ml MMP9,[3],1.99 reader units
same,test line signal at 500 ng/ml MMP9,[3],3.48 reader units
same,test line signal at 1000 ng/ml MMP9,[3],12 reader units
same,test line signal at 2000 ng/ml MMP9,[3],11.8 reader units
same,test line signal at 31.25 ng/ml MMP9,[4],0 reader units
same,test line signal at 62.5 ng/ml MMP9,[4],0 reader units
same,test line signal at 125 ng/ml MMP9,[4],0 reader units
same,test line signal at 250 ng/ml MMP9,[4],0.92 reader units
same,test line signal at 500 ng/ml MMP9,[4],3.84 reader units
same,test line signal at 1000 ng/ml MMP9,[4],7.57 reader units
same,test line signal at 2000 ng/ml MMP9,[4],10.5 reader units
same,test line signal at 31.25 ng/ml MMP9,[5],1.04 reader units
same,test line signal at 62.5 ng/ml MMP9,[5],1.36 reader units
same,test line signal at 125 ng/ml MMP9,[5],2.14 reader units
same,test line signal at 250 ng/ml MMP9,[5],5.01 reader units
same,test line signal at 500 ng/ml MMP9,[5],9.93 reader units
same,test line signal at 1000 ng/ml MMP9,[5],16.8 reader units
same,test line signal at 2000 ng/ml MMP9,[5],20.5 reader units
same,sensitivity of the assay,[6],<31.25 ng/ml for an indicator molecule having 7 cleavage sites
same,test line signal at 31.25 ng/ml MMP9,[6],2.27 reader units
same,test line signal at 62.5 ng/ml MMP9,[6],2.81 reader units
same,test line signal at 125 ng/ml MMP9,[6],3.25 reader units
same,test line signal at 250 ng/ml MMP9,[6],6.19 reader units
same,test line signal at 500 ng/ml MMP9,[6],9.31 reader units
same,test line signal at 1000 ng/ml MMP9,[6],21.3 reader units
same,test line signal at 2000 ng/ml MMP9,[6],25.3 reader units
same,cut-off of the assay,[7],The cut-off with all indicator molecules was below <31.25 ng/ml
same,test line signal at 31.25 ng/ml MMP9,[7],1.36 reader units
same,test line signal at 62.5 ng/ml MMP9,[7],1.78 reader units
same,test line signal at 125 ng/ml MMP9,[7],3.46 reader units
same,test line signal at 250 ng/ml MMP9,[7],5.44 reader units
same,test line signal at 500 ng/ml MMP9,[7],6.87 reader units
same,test line signal at 1000 ng/ml MMP9,[7],5.48 reader units
same,test line signal at 2000 ng/ml MMP9,[7],12.8 reader units
same,cut-off of the assay,[8],The cut-off with all indicator molecules was below <31.25 ng/ml
same,test line signal at 31.25 ng/ml MMP9,[8],1.45 reader units
same,test line signal at 62.5 ng/ml MMP9,[8],2.56 reader units
same,test line signal at 125 ng/ml MMP9,[8],3.1 reader units
same,test line signal at 250 ng/ml MMP9,[8],5.58 reader units
same,test line signal at 500 ng/ml MMP9,[8],9.04 reader units
same,test line signal at 1000 ng/ml MMP9,[8],11.6 reader units
same,test line signal at 2000 ng/ml MMP9,[8],17.9 reader units
same,cut-off of the assay,[9],The cut-off with all indicator molecules was below <31.25 ng/ml
same,test line signal at 31.25 ng/ml MMP9,[9],2.69 reader units
same,test line signal at 62.5 ng/ml MMP9,[9],2.94 reader units
same,test line signal at 125 ng/ml MMP9,[9],5.63 reader units
same,test line signal at 250 ng/ml MMP9,[9],10.1 reader units
same,test line signal at 500 ng/ml MMP9,[9],11.2 reader units
same,test line signal at 1000 ng/ml MMP9,[9],16.3 reader units
same,test line signal at 2000 ng/ml MMP9,[9],16.2 reader units
